The source of these data is US12637662B2, “Cells, islets, and organoids that evade immune detection and autoimmunity, methods of production and use thereof” (SALK INSTITUTE FOR BIOLOGICAL STUDIES, priority 2018, dated 2026).

Test [1] deals with ERRγ (ESRRG), mitochondrial and insulin gene expression. Nature of the test: Quantitative RT-PCR gene expression in hiPSC-derived islet organoids/HILOs. The test is classed as cell-based, human. The following applies: hiPSC-derived islet organoids, MCS or HILOs. How it is done: hiPSCs were cultured in matrigel-coated plates. Single cell suspensions were prepared using Accutase, washed in PBS, and collected by centrifugation (1000-1300 rpm for 5 min). Cells were re-suspended with 3D Kelco Gel Stem TeSR™ Base Medium in the presence of the ROCK inhibitor (10 μM Y-27632, StemCell) for 5 to 7 days until spheroids reached 50-100 μm diameter. The medium was then replaced with 0.015% Kelco gel containing 0.3% methylcellulose and supplemented with 100 ng/ml human Activin A (R&D Systems), 3 μM CHIR99021 (Axon or Selleckchem) in differentiation medium (S1) for 1 day, and then 100 ng/ml human Activin in differentiation medium (S1) for another 2 days (Stage 1, Definitive Endoderm). Subsequently, the medium was replaced with differentiation medium (S2) with 50 ng/ml FGF7 (R&D Systems) for 2 days, differentiation medium (S3) with 50 ng/ml FGF7, 0.25 μM SANT-1 (Sigma), 1 μM Retinoic Acid (Sigma), 100 nM LDN193189, 10 μM Alk5 inhibitor II and 200 nM of the ß-Amyloid Precursor Protein modulator TPB for 3 days, then 50 ng/ml FGF7, 0.25 μM SANT-1 (Sigma), 1 μM Retinoic Acid (Sigma), 100 nM LDN193189, 10 μM Alk5 inhibitor II and 100 nM of the ß-Amyloid Precursor Protein modulator TPB for 2 days. Subsequently the medium was replaced with differentiation medium (S4) with 0.25 μM SANT-1, 50 nM retinoic acid, 100 nM LDN193189, 10 μM Alk5 inhibitor II, 1 μM T3 for 3 days. Subsequently, the medium was replaced with differentiation medium (S5) with 100 nM LDN193189, 100 nM […] inhibitor XX (GSiXX, Millipore), 10 μM Alk5 inhibitor IL, 1 μM T3 for 7 days. Subsequently, the medium was replaced with differentiation media (S5) with 10 μM Trolox (Calbiochem), 2 μM R428 (Selleckchem), 1 mM N-acetyl cysteine, 10 μM Alk5 inhibitor II, 1 μM T3 for an additional 7 to 20 days. […]
Total RNA was extracted using TRIzol reagent (Invitrogen) and RNeasy KIT (Qiagen). […] Real time quantitative RT-PCR (qPCR) was performed using SYBR Green (Bio-Rad).

The test system of test [2] is human iPSC derived cells (islet-like organoids, MCS, HILOs). Nature of the test: Glucose-stimulated insulin/c-peptide secretion assay (GSIS, ELISA). Type of test: cell-based. How it is done:
Insulin release from intact islets was monitored using batch incubation methods as reported by E. Yoshihara et al., 2016, Cell metabolism, 23:622-634. Briefly, overnight-cultured, isolated pancreatic islets (RPMI-1640 medium supplemented with 10% (v/v) fetal bovine serum and 1% (v/v) Antibiotic-Antimycotic (Gibco)) were pre-cultured at 37° C. for 30 minutes in Krebs-Ringer bicarbonate buffer (KRBB) containing 129.4 mM NaCl, 3.7 mM KCl, 2.7 mM CaCl2), 1.3 mM KH2PO4, 1.3 mM MgSO4, 24.8 mM NaHCO3 (equilibrated with 5% CO2, 95% O2, pH 7.4), 10 mM HEPES and 0.2% (v/v) BSA (fraction V, Sigma) (KRBH) with 3 mM glucose). […] After 30 minutes, the islets were pelleted by centrifugation and secreted insulin levels were determined in the medium by Enzyme Linked Immunosorbent Assay (ELISA), (Rat/mouse Insulin ELISA KIT (Millipore) and Human Insulin ELISA KIT or ultrasensitive human c-peptide ELISA Kit (Millipore) for mouse and human islets, respectively). […] After 30 minutes, the cells were pelleted by centrifugation and c-peptide levels were determined in the supernatant medium using the human c-peptide ELISA KIT (Millipore). […]
Insulin release from intact islets was monitored using batch incubation methods (Yoshihara et al., 2010, Nat. Commun. 1:127). […] After 30 min, the cells were pelleted by centrifugation and c-peptide levels were determined by human c-peptide ELISA KIT (Millipore).
(In general: In an ELISA, binding on a coated surface is turned into a signal by an enzyme label.)

B1: WNT4: recombinant human Wnt4 protein (R&D Systems), non-canonical WNT maturation factor (protein, UniProt P56705 23-351, looked up)
Protein Wnt-4: SNWLYLAKLSSVGSISEEETCEKLKGLIQRQVQMCKRNLEVMDSVRRGAQLAIEECQYQFRNRRWNCSTLDSLPVFGKVVTQGTREAAFVYAISSAGVAFAVTRACSSGELEKCGCDRTVHGVSPQGFQWSGCSDNIAYGVAFSQSFVDVRERSKGASSSRALMNLHNNEAGRKAILTHMRVECKCHGVSGSCEVKTCWRAVPPFRQVGHALKEKFDGATEVEPRRVGSSRALVPRNAQFKPHTDEDLVYLEPSPDFCEQDMRSGVLGTRGRTCNKTSKAIDGCELLCCGRGFHTAQVELAERCSCKFHWCCFVKCRQCQRLVELHTCR
Take B1: the figures for the “expression of ERRγ (ESRRG) and mitochondrial genes” value in test [1] and in test [1] (listed as rhWNT4) were “dose-dependently increased” and “induced”, respectively. For the same molecule, the “glucose-stimulated insulin (c-peptide) secretion in vitro” value in test [2] (3 mM vs 20 mM glucose) is reported as “showed functional maturation”. Moreover, the “pseudo-islet formation and GSIS of commercially-available hiPSC-derived β like cells” value in test [2] (3D differentiation medium containing WNT4) was “promoted pseudo-islet formation and GSIS functionality”.
